The source of these data is patent US20140112915A1 (Novartis, published 2014).

Assay in all cases: cell-based or functional assay
Assay [1] deals with T1, Native human IL-18 (human, UniProt Q14116 37-193).
T1 sequence: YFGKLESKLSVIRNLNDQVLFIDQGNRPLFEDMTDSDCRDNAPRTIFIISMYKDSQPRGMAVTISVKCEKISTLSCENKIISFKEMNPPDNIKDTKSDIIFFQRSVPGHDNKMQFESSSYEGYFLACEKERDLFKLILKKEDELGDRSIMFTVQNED

The target of assay [2] is T2, Recombinant human IL-18 (human, UniProt Q14116 37-193).
T2 sequence: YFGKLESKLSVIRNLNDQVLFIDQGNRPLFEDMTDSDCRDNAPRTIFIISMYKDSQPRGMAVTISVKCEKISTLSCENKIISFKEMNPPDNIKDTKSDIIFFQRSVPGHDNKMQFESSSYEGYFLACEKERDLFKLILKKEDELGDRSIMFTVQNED

The target in assay [3] is T1, Native human IL-18. This is another data set of the same source.
The target of assay [4] is T3, Recombinant cynomolgus IL-18 (cynomolgus monkey, UniProt Q14116 37-193 (human entry)).
T3 chain: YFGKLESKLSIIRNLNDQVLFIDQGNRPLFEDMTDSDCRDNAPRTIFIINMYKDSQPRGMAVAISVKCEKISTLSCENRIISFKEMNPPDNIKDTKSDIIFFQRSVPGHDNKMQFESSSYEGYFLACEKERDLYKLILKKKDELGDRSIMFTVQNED

In assay [5] the target is T2, Recombinant human IL-18. The source holds these as a separate data set.
Assay [6] concerns the target T1, Native human IL-18. This is another data set of the same source.
The target of assay [7] is T2, Recombinant human IL-18. The source holds these as a separate data set.

Where two headings read alike, the source gives them in different places.

B1: MOR13342 (antibody, human IgG1, kappa, L234A L235A, V domains shown)
VH: QVQLVQSGAEVKKPGSSVKVSCKASGGTFSTFSISWVRQAPGQGLEWMGGIIPIFGTANYAQKFQGRVTITADESTSTAYMELSSLRSEDTAVYYCARGGYGGYYYFDYWGQGTLVTVSS
VL: DIQMTQSPSSLSASVGDRVTITCRASQSISNRLNWYQQKPGKAPKLLIYKGSTLQSGVPSRFSGSGSGTDFTLTISSLQPEDFATYYCQQHYVWSTTFGQGTKVEIKR
In the case of B1, the “IC50, inhibition of IFN-γ release, human whole blood, LPS/IL-12 (native IL-18)” value (shortened to “IC50, inhibition … (native IL-18)”) in assay [1] was determined as 21.5 nM. Moreover, in assay [2], the “IC50, inhibition of IFN-γ release, human whole blood, recombinant human IL-18 (7 nM)” value (shortened to “IC50, inhibition of IFN-γ release … (7 nM)”) stood at 6.6 nM. Further, in assay [3], the “IC50, inhibition of IFN-γ release, PBMC, Native IL-18 (LPS/IL-12)” value (shortened to “IC50, inhibition … (LPS/IL-12)”) was determined as 0.5 nM. In addition, in assay [4], the “IC50, inhibition of IFN-γ release, KG-1 cells, Cyno IL-18 (0.2 nM)” value worked out at 2.9 nM. For the same molecule, in assay [5], the “IC50, inhibition of IFN-γ release, KG-1 cells, Hu IL-18 (0.5 nM)” value is 0.11 nM.

B2: MOR13347 (antibody, human IgG1, kappa, L234A L235A, V domains shown)
VH: QVQLVQSGAEVKKPGSSVKVSCKASGGTFSTFSISWVRQAPGQGLEWMGGIIPIFGTANYAQKFQGRVTITADESTSTAYMELSSLRSEDTAVYYCARGGYGGYYYFDYWGQGTLVTVSS
VL: DIQMTQSPSSLSASVGDRVTITCRASQSISNRLNWYQQKPGKAPKLLIYKGSTLQSGVPSRFSGSGSGTDFTLTISSLQPEDFATYYCQQHYQWLTTFGQGTKVEIKR
For the molecule B2, in assay [1], the “IC50, inhibition … (native IL-18)” value stood at 8.3 nM. For the same molecule, the “IC50, inhibition of IFN-γ release … (7 nM)” value in assay [2] is 3.5 nM. In assay [3], the “IC50, inhibition … (LPS/IL-12)” value was 0.5 nM. Further, the “IC50, inhibition of IFN-γ release, KG-1 cells, Cyno IL-18 (0.2 nM)” value in assay [4] amounted to 2.8 nM. The “IC50, inhibition of IFN-γ release, KG-1 cells, Hu IL-18 (0.5 nM)” value in assay [5] turned out to be 0.12 nM.

B3: MOR10579 (antibody, human IgG1, lambda, L234A L235A, V domains shown)
VH: EVQLVQSGAEVKKPGSSVKVSCKASGGTFNSYAISWVRQAPGQGLEWMGWINPFYIGETFYAQKFQGRVTITADESTSTAYMELSSLRSEDTAVYYCARAAYHPLVFDNWGQGTLVTVSS
VL: QSVLTQPPSASGTPGQRVTISCSGSSSNIGNHYVNWYQQLPGTAPKLLIYRNNHRPSGVPDRFSGSKSGTSASLAISGLQSEDEADYYCQSWDYSGFSTVFGGGTKLTVLG
As for B3, the “IC50, inhibition … (native IL-18)” value in assay [1] came to 16.7 nM. Moreover, in assay [2], the “IC50, inhibition of IFN-γ release … (7 nM)” value was 5.6 nM. Also, the “IC50, inhibition … (LPS/IL-12)” value in assay [3] is 0.3 nM. Moreover, in assay [4], the “IC50, inhibition of IFN-γ release, KG-1 cells, Cyno IL-18” value came out at 9.8 nM. In addition, in assay [5], the “IC50, inhibition of IFN-γ release, KG-1 cells, Hu IL-18 (1 nM)” value (from here on “IC50, inhibition of IFN-γ release … (1 nM)”) was found to be 0.8 nM and the “IC50, inhibition of IFN-γ release, PBMC, Hu IL-18 (recombinant)” value came out at 1.9 nM.

B4: MOR9464_N30E (antibody, human IgG1, lambda, L234A L235A, V domains shown)
VH: EVQLVQSGAEVKKPGSSVKVSCKASGGTFESYAISWVRQAPGQGLEWMGNIIPMTGQTYYAQKFQGRVTITADESTSTAYMELSSLRSEDTAVYYCARAAYHPLVFDNWGQGTLVTVSS
VL: DIVLTQPPSVSGAPGQRVTISCSGSSSNIGNHYVNWYQQLPGTAPKLLIYRNNHRPSGVPDRFSGSKSGTSASLAITGLQSEDEADYYCQSWDYSGFSTVFGGGTKLTVLG
As for B4, in assay [6], the “IC50, inhibition … (LPS/IL-12)” value is 0.13 nM. For the same molecule, in assay [7], the “IC50, inhibition of IFN-γ release … (1 nM)” value was determined as 0.49 nM. For the same molecule, in assay [1], the “IC50, inhibition … (native IL-18)” value turned out to be 19.2 nM. In addition, the “IC50, inhibition of IFN-γ release … (7 nM)” value in assay [2] amounted to 12.9 nM.

B5: MOR10222 (antibody, human IgG1, lambda, L234A L235A, V domains shown)
VH: EVQLVQSGAEVKKPGSSVKVSCKASGGTFNSYAISWVRQAPGQGLEWMGNIIPMTGQTYYAQKFQGRVTITADESTSTAYMELSSLRSEDTAVYYCARAAYHPLVFDNWGQGTLVTVSS
VL: QSVLTQPPSASGTPGQRVTISCSGSSSNIGNHYVNWYQQLPGTAPKLLIYRNNHRPSGVPDRFSGSKSGTSASLAISGLQSEDEADYYCQSWDYSGFSTVFGGGTKLTVLG
With B5, the “IC50, inhibition … (native IL-18)” value in assay [1] came out at 21.6 nM. The “IC50, inhibition of IFN-γ release … (7 nM)” value in assay [2] is 4.7 nM. For the same molecule, the “IC50, inhibition … (LPS/IL-12)” value in assay [3] is 0.22 nM. Moreover, in assay [4], the “IC50, inhibition of IFN-γ release, KG-1 cells, Cyno IL-18” value worked out at 6.6 nM. Moreover, in assay [5], the “IC50, inhibition of IFN-γ release … (1 nM)” value was determined as 0.7 nM and the “IC50, inhibition of IFN-γ release, PBMC, Hu IL-18 (recombinant)” value was determined as 2.3 nM.

B6: MOR10222_E1Q_N30S (antibody, human IgG1, lambda, L234A L235A, V domains shown)
VH: QVQLVQSGAEVKKPGSSVKVSCKASGGTFSSYAISWVRQAPGQGLEWMGNIIPMTGQTYYAQKFQGRVTITADESTSTAYMELSSLRSEDTAVYYCARAAYHPLVFDNWGQGTLVTVSS
VL: QSVLTQPPSASGTPGQRVTISCSGSSSNIGNHYVNWYQQLPGTAPKLLIYRNNHRPSGVPDRFSGSKSGTSASLAISGLQSEDEADYYCQSWDYSGFSTVFGGGTKLTVLG
With B6, in assay [6], the “IC50, inhibition … (LPS/IL-12)” value is 0.05 nM. Besides, in assay [7], the “IC50, inhibition of IFN-γ release … (1 nM)” value was found to be 3.3 nM. Besides, the “IC50, inhibition … (native IL-18)” value in assay [1] was 16.9 nM. Besides, the “IC50, inhibition of IFN-γ release … (7 nM)” value in assay [2] is 58.4 nM.
